The record followed here is publication PMC10910542 (Acta Crystallographica. Section D, Structural Biology, 2024).

As a reminder, the remaining activity is the share of the control activity or signal that is left under treatment. The low end stands for a large loss of activity, the high end for a small loss of activity. A word on the Km: it is the concentration of substrate that gives half-maximal velocity. The term kcat denotes the maximal rate divided by the concentration of active sites. A word on the kcat/Km: it is the second-order rate constant that governs catalysis at low substrate concentration.

The target in one series is T1, MKbur (Methanococcoides burtonii, UniProt Q12TI0).
T1 construct: gene mvk
As to the kind of experiment: residual activity, coupled assay. It counts as biochemical. Conditions: 1.5 mM mevalonate, 3 mM ATP.

The next series concerns the target T2, MKvar (Ramazzottius varieornatus, UniProt A0A1D1VW28).
T2 construct: gene RvY_15762-1
T2 sequence (A0A1D1VW28 1-405): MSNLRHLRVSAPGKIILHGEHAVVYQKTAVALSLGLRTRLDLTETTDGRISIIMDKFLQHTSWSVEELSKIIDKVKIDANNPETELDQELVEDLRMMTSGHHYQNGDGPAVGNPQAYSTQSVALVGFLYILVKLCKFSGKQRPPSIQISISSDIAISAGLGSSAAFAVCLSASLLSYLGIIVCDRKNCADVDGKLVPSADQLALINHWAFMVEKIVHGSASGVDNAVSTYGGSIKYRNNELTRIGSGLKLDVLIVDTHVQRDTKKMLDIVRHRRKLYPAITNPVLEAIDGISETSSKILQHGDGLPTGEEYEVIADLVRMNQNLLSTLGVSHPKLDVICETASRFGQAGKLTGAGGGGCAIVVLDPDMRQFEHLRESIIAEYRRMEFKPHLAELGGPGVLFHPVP
As to the kind of experiment: residual activity, coupled assay. The format is biochemical.

The target of another series is T3, MKmaz (Methanosarcina mazei, UniProt Q8PW39).
T3 construct: gene mvk
T3 sequence (Q8PW39 1-301): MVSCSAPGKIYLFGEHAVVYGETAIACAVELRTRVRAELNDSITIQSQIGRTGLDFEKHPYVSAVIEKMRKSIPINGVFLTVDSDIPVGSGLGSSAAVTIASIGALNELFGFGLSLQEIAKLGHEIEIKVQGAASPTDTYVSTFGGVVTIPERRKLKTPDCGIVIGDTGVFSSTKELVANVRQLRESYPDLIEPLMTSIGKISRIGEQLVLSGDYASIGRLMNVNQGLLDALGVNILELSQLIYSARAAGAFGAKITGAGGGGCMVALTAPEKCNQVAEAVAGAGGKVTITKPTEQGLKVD
As to the kind of experiment: residual activity, coupled assay. The format is biochemical.

Substrate in series [1]: CC(O)(CCO)CC(=O)O
As to the kind of experiment: purified protein. As to conditions: 5 mM ATP, Mg2+ 10 mM, 25 °C, racemic mevalonate.

Substrate in series [2]: Nc1ncnc2c1ncn2[C@@H]1O[C@H](COP(=O)(O)OP(=O)(O)OP(=O)(O)O)[C@@H](O)[C@H]1O
As to the kind of experiment: purified protein. Conditions: 5 mM (RS)-mevalonate, Mg2+ 10 mM, 25 °C.

On to `CC(C)=CCC/C(C)=C/CC/C(C)=C/COP(=O)(O)OP(=O)(O)O` [farnesyl pyrophosphate], for which, on MKbur, the “% residual activity at 100 μM” value was “MKbur, like MKmaz, appears to be less sensitive to inhibition”. The remaining activity at 100 µM on MKvar came to 0.4%; at MKmaz, 70%.

On to `CC(C)=CCC/C(C)=C/COP(=O)(O)OP(=O)(O)O` [geranyl pyrophosphate], for which the “% residual activity at 100 μM” value at MKbur is “MKbur, like MKmaz, appears to be less sensitive to inhibition”. The remaining activity at 100 µM at MKvar is less than 20%; on MKmaz, 92%.

B1: MKvar (Ramazzottius varieornatus) (protein)
chain: MSNLRHLRVSAPGKIILHGEHAVVYQKTAVALSLGLRTRLDLTETTDGRISIIMDKFLQHTSWSVEELSKIIDKVKIDANNPETELDQELVEDLRMMTSGHHYQNGDGPAVGNPQAYSTQSVALVGFLYILVKLCKFSGKQRPPSIQISISSDIAISAGLGSSAAFAVCLSASLLSYLGIIVCDRKNCADVDGKLVPSADQLALINHWAFMVEKIVHGSASGVDNAVSTYGGSIKYRNNELTRIGSGLKLDVLIVDTHVQRDTKKMLDIVRHRRKLYPAITNPVLEAIDGISETSSKILQHGDGLPTGEEYEVIADLVRMNQNLLSTLGVSHPKLDVICETASRFGQAGKLTGAGGGGCAIVVLDPDMRQFEHLRESIIAEYRRMEFKPHLAELGGPGVLFHPVP
With B1, in the series “purified protein [1]”, the Km was determined as 237 ± 68 µM, the kcat stood at 5 ± 0.8 s⁻¹ and the kcat/Km came out at 21000 M⁻¹ s⁻¹. In “purified protein [2]”, the Km is 4844 ± 1413 µM.

B2: MKmaz (Methanosarcina mazei Go1) (protein)
chain: MVSCSAPGKIYLFGEHAVVYGETAIACAVELRTRVRAELNDSITIQSQIGRTGLDFEKHPYVSAVIEKMRKSIPINGVFLTVDSDIPVGSGLGSSAAVTIASIGALNELFGFGLSLQEIAKLGHEIEIKVQGAASPTDTYVSTFGGVVTIPERRKLKTPDCGIVIGDTGVFSSTKELVANVRQLRESYPDLIEPLMTSIGKISRIGEQLVLSGDYASIGRLMNVNQGLLDALGVNILELSQLIYSARAAGAFGAKITGAGGGGCMVALTAPEKCNQVAEAVAGAGGKVTITKPTEQGLKVD
Turning to B2, in the series “purified protein [1]”, the Km is 123 ± 9 µM, the turnover number (kcat) came to 10 s⁻¹ and the kcat/Km amounted to 81000 M⁻¹ s⁻¹. For the same molecule, in “purified protein [2]”, the Km was 511 ± 48 µM.

B3: MKbur (Methanococcoides burtonii DSM 6242) (protein)
chain: MITCSAPGKVYLFGEHAVVYGEPAICCAVDIRTRVTVSPADTITISSSLGTTGIDFEVHPYVSAVLERFQDISSFDGVDLRISSDIPVGSGLGSSAAVTVATIKAMDTLLDLGLELDDIAKMGHEVEQNIQGTASPTDTYVCTMGGVVLIPQRKKLELIDCGILIGNTNIFSSTKELVGNVADLNERFPDVVGPVLSSIGKLSVIGEGLVNDRDYVSVGELMNIDQGLLDAIGVSCAELSSLIYAARESGAYGSKITGAGGGGCMVAISPRENVDSVAEAIGMAGGKVVVANATDIGVRVECQ
B3: in “purified protein [1]”, the Km was determined as 55 ± 11 µM, the kcat came to 5 s⁻¹ and the kcat/Km was 90000 M⁻¹ s⁻¹. For the same molecule, the Km in “purified protein [2]” is 331 ± 63 µM.
